Test system: Escherichia coli TOP10
Assay: shrunken log2 fold change of peptide-encoding DNA abundance (4.5 h post-induction vs induction); higher = less antimicrobial activity (less host growth inhibition)
Conditions: time post-induction: 4.5 h; library: site-saturation at positions 5, 18, 19, 20
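Note: peptides expressed intracellularly from a pBAD plasmid library in pooled LB shake-flask culture, induced with 0.3% L-arabinose, DNA abundance read by NGS, three biological replicates, DESeq2 with apeglm shrinkage.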

Sequence	shrunken log2 fold change
RRIRARPPRLPRPRPRPLFEPRP	0.629
RRIRMRPPRLPRPRPRPRSNPRP	0.13
RRIRGRPPRLPRPRPRPRITPRP	0.792
RRIRARPPRLPRPRPRPIPRPRP	0.526
RRIRTRPPRLPRPRPRPSPSPRP	-0.0444
RRIRHRPPRLPRPRPRPALQPRP	0.0339
RRIRDRPPRLPRPRPRPHMDPRP	0.0662
RRIRHRPPRLPRPRPRPDRQPRP	-0.135
RRIRKRPPRLPRPRPRPFCIPRP	0.0646
RRIRKRPPRLPRPRPRPQQGPRP	0.23
RRIRLRPPRLPRPRPRPSPHPRP	-0.242
RRIRTRPPRLPRPRPRPCDAPRP	0.0216
RRIRLRPPRLPRPRPRPWDDPRP	-0.208
RRIRVRPPRLPRPRPRPTNEPRP	-0.0806
RRIRQRPPRLPRPRPRPKVCPRP	-0.193
RRIRQRPPRLPRPRPRPQPYPRP	-0.0274
RRIRTRPPRLPRPRPRPSVAPRP	0.00143
RRIRNRPPRLPRPRPRPRLWPRP	0.0283
RRIRPRPPRLPRPRPRPGPDPRP	0.28
RRIRQRPPRLPRPRPRPNIGPRP	-0.0212
RRIRSRPPRLPRPRPRPQDPPRP	0.122
RRIRPRPPRLPRPRPRPIICPRP	-0.188
RRIRARPPRLPRPRPRPGRQPRP	0.706
RRIRLRPPRLPRPRPRPYINPRP	-0.584
RRIRDRPPRLPRPRPRPYDNPRP	-0.307

Sequence	shrunken log2 fold change
RRIRGRPPRLPRPRPRPFHQPRP	-0.199
RRIRMRPPRLPRPRPRPECLPRP	1.6
RRIRLRPPRLPRPRPRPQYRPRP	-0.188
RRIRERPPRLPRPRPRPEWYPRP	0.0172
RRIRIRPPRLPRPRPRPYIFPRP	-0.425
RRIRMRPPRLPRPRPRPQEEPRP	-0.0207
RRIRTRPPRLPRPRPRPILLPRP	-0.658
RRIRFRPPRLPRPRPRPIVFPRP	-0.0906
RRIRDRPPRLPRPRPRPWMIPRP	-0.124
RRIRPRPPRLPRPRPRPDYNPRP	-0.553
RRIRKRPPRLPRPRPRPSSEPRP	0.2
RRIRHRPPRLPRPRPRPMSFPRP	-0.089
RRIRCRPPRLPRPRPRPPGHPRP	0.422
RRIRMRPPRLPRPRPRPIFKPRP	0.161
RRIRWRPPRLPRPRPRPNTEPRP	-0.324
RRIRFRPPRLPRPRPRPPNCPRP	-0.159
RRIRHRPPRLPRPRPRPGHDPRP	0.0104
RRIRNRPPRLPRPRPRPFFRPRP	-0.378
RRIRYRPPRLPRPRPRPACKPRP	-0.0277
RRIRDRPPRLPRPRPRPELHPRP	0.319
RRIRVRPPRLPRPRPRPRVKPRP	-0.221
RRIRERPPRLPRPRPRPMGHPRP	-0.298
RRIRNRPPRLPRPRPRPAITPRP	0.134
RRIRYRPPRLPRPRPRPMMDPRP	-0.103
RRIRCRPPRLPRPRPRPCSIPRP	-0.143

Sequence	shrunken log2 fold change
RRIRMRPPRLPRPRPRPTAKPRP	0.255
RRIRMRPPRLPRPRPRPRPIPRP	0.754
RRIRERPPRLPRPRPRPICSPRP	-0.0316
RRIRPRPPRLPRPRPRPKMRPRP	0.903
RRIRKRPPRLPRPRPRPLLPPRP	0.227
RRIRCRPPRLPRPRPRPNFFPRP	0.0889
RRIRARPPRLPRPRPRPCRNPRP	-0.38
RRIRSRPPRLPRPRPRPHEAPRP	0.0366
RRIRARPPRLPRPRPRPDWMPRP	0.383
RRIRSRPPRLPRPRPRPWIWPRP	0.341
RRIRKRPPRLPRPRPRPMPGPRP	0.0564
RRIRERPPRLPRPRPRPFPCPRP	-0.0816
RRIRMRPPRLPRPRPRPWGMPRP	0.187
RRIRFRPPRLPRPRPRPICDPRP	0.0526
RRIRMRPPRLPRPRPRPLMSPRP	0.00915
RRIRARPPRLPRPRPRPSHDPRP	0.225
RRIRIRPPRLPRPRPRPKWRPRP	0.188
RRIRIRPPRLPRPRPRPDWQPRP	-0.00422
RRIRPRPPRLPRPRPRPVKEPRP	0.0267
RRIRRRPPRLPRPRPRPRIIPRP	0.0728
RRIRFRPPRLPRPRPRPVPRPRP	0.384
RRIRARPPRLPRPRPRPARMPRP	0.724
RRIRWRPPRLPRPRPRPFCSPRP	-0.0764
RRIRGRPPRLPRPRPRPIEAPRP	0.377
RRIRERPPRLPRPRPRPDKAPRP	-0.0525

Sequence	shrunken log2 fold change
RRIRKRPPRLPRPRPRPTHSPRP	0.168
RRIRERPPRLPRPRPRPLFIPRP	-0.0618
RRIRVRPPRLPRPRPRPLWNPRP	-0.197
RRIRARPPRLPRPRPRPFSRPRP	-0.145
RRIRCRPPRLPRPRPRPCEVPRP	-0.251
RRIRCRPPRLPRPRPRPAEKPRP	-0.0214
RRIRTRPPRLPRPRPRPIKGPRP	-0.331
RRIRKRPPRLPRPRPRPVHFPRP	-0.0637
RRIRDRPPRLPRPRPRPPRGPRP	1.31
RRIRNRPPRLPRPRPRPMQDPRP	-0.0611
RRIRCRPPRLPRPRPRPAWQPRP	0.359
RRIRQRPPRLPRPRPRPSTPPRP	-0.311
RRIRVRPPRLPRPRPRPQHMPRP	-0.23
RRIRMRPPRLPRPRPRPKVSPRP	0.0176
RRIRFRPPRLPRPRPRPDYKPRP	-0.492
RRIRVRPPRLPRPRPRPHNPPRP	-0.272
RRIRHRPPRLPRPRPRPNCIPRP	-0.753
RRIRNRPPRLPRPRPRPNKQPRP	-0.0266
RRIRPRPPRLPRPRPRPHKYPRP	-0.29
RRIRQRPPRLPRPRPRPEGSPRP	-0.00794
RRIRERPPRLPRPRPRPIRPPRP	-0.0241
RRIRERPPRLPRPRPRPWKQPRP	-0.0582
RRIRTRPPRLPRPRPRPECLPRP	0.105
RRIRVRPPRLPRPRPRPNTHPRP	-0.457
RRIRMRPPRLPRPRPRPNMTPRP	0.188

Sequence	shrunken log2 fold change
RRIRNRPPRLPRPRPRPWQNPRP	0.191
RRIRTRPPRLPRPRPRPVFAPRP	0.214
RRIRQRPPRLPRPRPRPGDWPRP	0.866
RRIRKRPPRLPRPRPRPMVRPRP	0.00145
RRIRIRPPRLPRPRPRPNACPRP	0.00304
RRIRNRPPRLPRPRPRPFENPRP	-0.0135
RRIRDRPPRLPRPRPRPMCVPRP	0.101
RRIRLRPPRLPRPRPRPMQWPRP	0.0515
RRIRTRPPRLPRPRPRPVQHPRP	-0.217
RRIRMRPPRLPRPRPRPQQHPRP	0.0483
RRIRRRPPRLPRPRPRPQVRPRP	-0.0161
RRIRFRPPRLPRPRPRPEVWPRP	0.273
RRIRSRPPRLPRPRPRPRVHPRP	0.109
RRIRTRPPRLPRPRPRPIKMPRP	-0.0667
RRIRTRPPRLPRPRPRPKDRPRP	-0.196
RRIRIRPPRLPRPRPRPAMAPRP	-0.237
RRIRFRPPRLPRPRPRPKCWPRP	0.267
RRIRHRPPRLPRPRPRPFIGPRP	-0.231
RRIRVRPPRLPRPRPRPCGMPRP	-0.00417
RRIRRRPPRLPRPRPRPMAKPRP	0.315
RRIRARPPRLPRPRPRPGCNPRP	0.252
RRIRGRPPRLPRPRPRPEFMPRP	0.887
RRIRDRPPRLPRPRPRPRDNPRP	-0.339
RRIRPRPPRLPRPRPRPGNNPRP	-0.103
RRIRVRPPRLPRPRPRPYYPPRP	-0.414
